Reference: publication PMC6208366

Molecular target: IANBD-labeled Hsp90 M362C (human)
Assay: stopped-flow fluorescence; IANBD-labeled Hsp90 M362C (1 µM) mixed with equal volumes of FKBP51, FK1-FK2, FK2-TPR or buffer, pseudo-first-order, 37 °C, 25 mM sodium phosphate/300 mM NaCl pH 7.2; rates as fluorescence increase at 20 s

B1: full-length human FKBP51 (natural protein)
chain: MTTDEGAKNNEESPTATVAEQGEDITSKKDRGVLKIVKRVGNGEETPMIGDKVYVHYKGKLSNGKKFDSSHDRNEPFVFSLGKGQVIKAWDIGVATMKKGEICHLLCKPEYAYGSAGSLPKIPSNATLFFEIELLDFKGEDLFEDGGIIRRTKRKGEGYSNPNEGATVEIHLEGRCGGRMFDCRDVAFTVGEGEDHDIPIGIDKALEKMQREEQCILYLGPRYGFGEAGKPKFGIEPNAELIYEVTLKSFEKAKESWEMDTKEKLEQAAIVKEKGTVYFKGGKYMQAVIQYGKIVSWLEMEYGLSEKESKASESFLLAAFLNLAMCYLKLREYTKAVECCDKALGLDSANEKGLYRRGEAQLLMNEFESAKGDFEKVLEVNPQNKAARLQISMCQKKAKEHNERDRRIYANMFKKFAEQDAKEEANKAMGKKTSEGVTNEKGTDSQAMEEEKPEGHV
  ΔF (rate of Hsp90 binding, fluorescence increase): 0.0021 s⁻¹
